From the nanobody polyreactivity screen of Harvey et al. (2022) come the findings set out here.

This series is described as follows: yeast display, Sf9 membrane polyspecificity reagent, FACS + sequencing; frameworks hold sequencing errors. The gist of the method: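 A synthetic nanobody library was expressed on Saccharomyces cerevisiae BJ5465 by galactose induction for 36–48 hours. The library was stained for 1 hour at 4 °C with 10% biotinylated, detergent-solubilized Sf9 membrane reagent and enriched with streptavidin microbeads before FACS. Low and high (top ~1%) gates were set on anti-HA fluorescence for expression and streptavidin fluorescence for reagent binding, and each polyreactivity label reflects the gate of origin.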
On to “QVQLVESGGGLVQAGGSLRLSCAASGSTFVPYAIGWYRQAPGTERELVAAISSRGGRTSYADSVKGRFTISRDNAKNTVYLQMKRLKPEDTAVYYCIALYPGRLTDYSRSKMEYWGQGTQVTVSS”, for which the “polyreactivity (PSR sort gate)” value is listed as “high polyreactivity”. Consider “QVQLVESGGGLVQAGGSLRLSCAASGSTFVPYAMGWYRQAPGKERELVAAITDSGGSTSYADSVKGRFTISRDKAKNSVYLQMNSLKPEDTAVYYCAAQTRAIVQKYPGDDYWGQGTQVTVSS”, for which the “polyreactivity (PSR sort gate)” value is on record as “low polyreactivity”. For “QVQLVESGGGLVQAGGSLRLSCAASGSTFVPYAMGWYRQAPGKERELVAAITTSGGNTYYADSVKGRFTISRDNAKNTVYLQMNSLKPEDTAVYYCAADTYRRFDYWGEGTQVTVSS” the value was “low polyreactivity”; for “QVQLVESGGGLVQAGGSLRLSCAASGSTFVPYAMGWYRQAPGKERELVASISWRGGSTSYADSVKGRFTISRDNAKNTVYLQMNSLKPEDTAVYYCAARPRYRYKQDYYYWGQGTQVTVSS”, “high polyreactivity”.

Turning to “QVQLVESGGGLVQAGGSLRLSCAASGSTFVPYVMGWYRQAPGKERELVAAISKSGTSTYYADSVKGRFTISRDNAKNTVYLQMNCLKPEDTAVYYCAAVARRQVPYDYWGQGTQVTVSS”, the “polyreactivity (PSR sort gate)” value is given as “high polyreactivity”. The same measure for “QVQLVESGGGLVQAGGSLRLSCAASGSTFVRNAMGWYRQAPGKERELVAGITFGGGSTYYADSVKGRFTISRDIAKNTVYLQMNSLKPEDTAVYYCAADLSYRGATRGDYYWGQGTQVTVSS”: “low polyreactivity”. For “QVQLVESGGGLVQAGGSLRLSCAASGSTFVRYAMGGYRQAPGKERELVAAISWSGASTYYADSVKGRFTISRDNAKNTVYLQMNSLKPEDTAVYYCAARSRWYDAAGYPKYYYWGQGTQVTVSS” the value was “high polyreactivity”; for “QVQLVESGGGLVQAGGSLRLSCAASGSTFVRYAMGWYRQAPGKERELVAAISSNGGSTYYADSVKGRFTISRDNAKNSVYLQMNSLKPEDTAVYYCAKSRVRKYYWGQGTQVTVSS”, “high polyreactivity”. The same measure for “QVQLVESGGGLVQAGGSLRLSCAASGSTFVRYSMGWYRQAPGKERDLVAAITSSGGSTYYADSVKGRFTISRDNAKNSVYFQMNSLKPEDTAVYDFAAARYPYRYIYNYWGQGTQVTVSS”: “high polyreactivity”; for “QVQLVESGGGLVQAGGSLRLSCAASGSTFVRYVMGWYRQAPGKERELVAAISRRGGSTYYADSVKGRFTISRDNAKNTVYLQMNSLKPEDTAVYYCARTVGYRTLLESDSWGQGTQVTVSS”: “high polyreactivity”; for “QVQLVESGGGLVQAGGSLRLSCAASGSTFVRYVMGWYRQAPGKQRELVAAISRRGGSTYYADSVEGRFTISRDNAKNTVYLQMNSLKPEDTAVYYCAARGTSRKYYYWGQGTQVTVSS”: “high polyreactivity”.

With “QVQLVESGGGLVQAGGSLRLSCAASGSTFVRYVMGWYRQATGKERELVAAISRRGGSTYYADSVKGRFTISRDNAKNTVYLQMNSLKPEDTAVYYCARTVGYRTLLESDSWGQGTQVTVSS”, the “polyreactivity (PSR sort gate)” value is given as “high polyreactivity”. The same measure for “QVQLVESGGGLVQAGGSLRLSCAASGSTFVSSALGWSSQAPGKARELVARIRRSGGSTYYADSVKGRFTISRDNAKNTVYLQMNSLKPEDTAVYDCAAGYSRGQYRYNYWGQGTQVTVSS”: “high polyreactivity”; for “QVQLVESGGGLVQAGGSLRLSCAASGSTFVSYAMGWYRQAPGKERELVAAISSGGGSTYYADSVKGRFTISRDNAKNTVYLQMNSLKPEDTAVYYCAARGYAYRAQYGYWGQGTQVTVSS”: “high polyreactivity”. The same measure for “QVQLVESGGGLVQAGGSLRLSCAASGSTFVSYAMGWYRQEPGKERELVATISQSGGSTSYADSVKGRFTISRDNAKNTVYFQMNCRKPEDTAVYNCAARLRAPHRRSYNYWGQGTQVTVSS”: “high polyreactivity”; for “QVQLVESGGGLVQAGGSLRLSCAASGSTFVTNDMGWYRQAPGKERDLVADISWSGGDTYYADSVKGRFTISRDNAKNTVYLQMNSLKPEDTAVYYCAARPDQGLAYSPLPWYNYWGQGTQVTVSS”: “low polyreactivity”; for “QVQLVESGGGLVQAGGSLRLSCAASGSTFVTNDMGWYRQAPGKESELVAAISSGTSTNYADSVKGRFTISRDNAKNTVYLQMNSLKPEDTAVYYCAADSLKRYDYWGQGTQVTVSS”: “low polyreactivity”. The same measure for “QVQLVESGGGLVQAGGSLRLSCAASGSTFVTYAKGWYRQAPGKERELVAAITSGGSTNYADSVKGRFTISRDNAKNTVYLQMNCLKPEDTEVYYCAARYYGAYGKQPRARYGYWGQGTQVTVSS”: “high polyreactivity”; for “QVQLVESGGGLVQAGGSLRLSCAASGSTFVVNAMGWYRQAPGKEREFVAAITWNGGSTYADSVKGRFTISRDNAKNTVYLQMNSLKPEDTAVYYCSADLSYWDDFDYWGQGTQVTVSS”: “low polyreactivity”; for “QVQLVESGGGLVQAGGSLRLSCAASGSTFVVNAMGWYRQAPGKERELVAAITLSTGSTYYADSVKGRFTISRDNAKNTVYLQMNSLKPEDTAVYYCNTEIYVDIISDYGYWGQGTEVTVSS”: “low polyreactivity”. For “QVQLVESGGGLVQAGGSLRLSCAASGSTFVVNAMGWYRQAPGKERELVAAITQSGGSTFYADSVKGRFTISRDNAKNTVYLQMNSLKPEETAVYYWGHGTQVTVSS”, the “polyreactivity (PSR sort gate)” value is recorded as “low polyreactivity”. For “QVQLVESGGGLVQAGGSLRLSCAASGSTFVVNTMGWYRQAPGKERELVAAITRRTTSTYYADSVKGRFTISRDNAKNTVYLQMNSLKPEDTAVYYCAAERRHYSTTYYYWGQGTQVTVSS” the value was “high polyreactivity”; for “QVQLVESGGGLVQAGGSLRLSCAASGSTFVWYAMGWYRQAPGKEREFVAAITSDGGSTYYADSVKGRFTISRDNAKNTVYLQLNSLKPEDTAVYYCAADYYSLASGWYYYWGQGTQVTVSS”, “high polyreactivity”. The same measure for “QVQLVESGGGLVQAGGSLRLSCAASGSTFVWYAMGWYRQAPGKEREFVATISWSGDSTYYADSVKGRFTISRDNAKNTVYLQMNSLKPEDTAVYYCATAVYLVIFEYDYWGQGSQVTVSS”: “low polyreactivity”.

In the case of “QVQLVESGGGLVQAGGSLRLSCAASGSTFVWYGMGWYRQAPGKEREFVAAISTSGGRTYYADSVKGRFTISRDNAKNTVYLQMNSLKPEDTAVYYCATRPYFTYRWYDYWGQGTQVTVSS”, the “polyreactivity (PSR sort gate)” value is listed as “high polyreactivity”. For “QVQLVESGGGLVQAGGSLRLSCAASGSTFVYNAMGWYRQAPGKERELVAAISRRGGSTYYADSVKGRFTISRDNAKNTVYLQMNSLKPEDTAVYYCATDRVQDSYYWGQGTQVTVSS” the value was “high polyreactivity”; for “QVQLVESGGGLVQAGGSLRLSCAASGSTFVYNAMGWYRQAPGKERELVAAISTGGSTYYADSVKGRFTISRDNAKNTVYLQMNSLKPEDNAVYYCAAKQRTTLYDYWGQGTQVTVSS”, “high polyreactivity”. The same measure for “QVQLVESGGGLVQAGGSLRLSCAASGSTFVYNTMGWYRQAPGKERELVASISSDGNTYYADSVKGRFTISRDNAKNTVYLQMNSLKPEDTAVYYCAARYYYDWRFVGYDYWGQGTQVTVSS”: “low polyreactivity”; for “QVQLVESGGGLVQAGGSLRLSCAASGSTFVYYAMGWSRQAPGKERELVAAIKRSGTRTYYADSVKGRFTISRDNAKNTVYLQMNSLKPEDTAVYYCANAVQGKYGYWGQGTQVTVSS”: “high polyreactivity”; for “QVQLVESGGGLVQAGGSLRLSCAASGSTFVYYAMGWYRQAPGKERELVAAISTSAGSTYYADSVKGRFTISRDNAKNTVYLQMNSLKPEDTAVYYCAASRKRRRYGSISGGYWGQGTQVTVSS”: “high polyreactivity”. For “QVQLVESGGGLVQAGGSLRLSCAASGSTFVYYAMGWYRQAPGKERELVAAITGSVDSTYYADSVKGRFTISRDNAKNTVYLQMNSLNPEDTAVYYCAAVTYSTYWGQGTQVTVSS” the value was “low polyreactivity”. Turning to “QVQLVESGGGLVQAGGSLRLSCAASGSTFVYYAMGWYRQAPGKERELVAAITSGDSTYYADSVKGRFTISRDNAKNTVYLQMNSLKPEDTAVYYCAKRGGYKWIYGYWGQGTQVTVSS”, the “polyreactivity (PSR sort gate)” value is on record as “low polyreactivity”. The same measure for “QVQLVESGGGLVQAGGSLRLSCAASGSTFVYYAMGWYRQAPGKETEFVAAISISSGSTYYADSVKGRFTISRDNAKNTVYLQMNSLKPEDTAVYYCAVDWFLGGYDDLDYWGQGTQVTVSS”: “low polyreactivity”; for “QVQLVESGGGLVQAGGSLRLSCAASGSTFWANALGWYRQAPGKERELVAGITWNAGSTYYADSVKGRFTISRDNAKNTVYLQMNSLKPEDTGVYYCAAYYHFQGWGPGYNSWGQGTQVTVSS”: “low polyreactivity”; for “QVQLVESGGGLVQAGGSLRLSCAASGSTFWANAMGWYRQAPGKEREIVATISWSDGSTYYAASVKGRFTISRDNAKNTVYLQRNSLNPEDTAVYYCASDVVRFFTYKYDDWGQGTQVTVSS”: “low polyreactivity”.

Regarding “QVQLVESGGGLVQAGGSLRLSCAASGSTFWANAMGWYRQAPGKERELVAAITTSGASTYYADSVKGRFTISRDNAKNTVYLQMNSLKPEDTAVYYCAADYDSYYWYNYWGQGTQVTVSS”, the “polyreactivity (PSR sort gate)” value was “low polyreactivity”.

Turning to “QVQLVESGGGLVQAGGSLRLSCAASGSTFWEYAMGWYRQGPGTERELVAAISSSGGSTYYADSVKGRFTISRDNAKNTVYLQMNSLKPEDTAVYYCAARYSWRRAGYYYWGQGTQVTVSS”, the “polyreactivity (PSR sort gate)” value is “high polyreactivity”. The same measure for “QVQLVESGGGLVQAGGSLRLSCAASGSTFWFNAMGWYRQAPGKERELVAAISSTGSTNYADSVKGRFTISRDNSKNTVYLQMNSLKPEDTAVYYCATQEGPHKLDPRGYYWGQGTQVTVSS”: “low polyreactivity”; for “QVQLVESGGGLVQAGGSLRLSCAASGSTFWFNGMGWYRQAPGKERELVAVITFSTGSTSYADSVKGRCTISRDDAKNTVYLQMNSLKPEDTAVYYCAAEYVIYYWFEWLDLDYWGQGTQVTVSS”: “high polyreactivity”. The same measure for “QVQLVESGGGLVQAGGSLRLSCAASGSTFWFYTMGWYRQAPGKERELVATITSGGSTNYADSVKGRFTISRDNAKNTVYLQMNSLKPEDTAVYYCAASSVLTNHDYWGQGTQVTVSS”: “low polyreactivity”; for “QVQLVESGGGLVQAGGSLRLSCAASGSTFWINAMGWYRQAPGKERELVADISHSAGNTYYADSVKGRFTISRDNAKNTVYLQMNSLKPEDTAVYYCAARRWGVRSGDYYWGQGTQVTVSS”: “low polyreactivity”.
